For series [1], the target named is HK97 small terminase (Escherichia coli bacteriophage HK97). Description: cryo-EM structure; small terminase with 31 bp DNA (cos 7-37), 1:2 protein:DNA, 25 mM Tris-HCl pH 7.5, 200 mM NaCl, 10 mM MgCl2; complex purified on S200 10/30; 3.0 Å.
In series [2] the target is HK97 small terminase Arg5 to alanine mutant (Escherichia coli bacteriophage HK97). Put plainly: SEC; mutant proteins on a Superdex S200 10/30 column in 25 mM Tris-HCl, pH 7.5, 1 M NaCl (SI Appendix, Fig. S12). On the technique in general: In gel filtration, larger molecules generally elute earlier.
In series [3] the target is HK97 small terminase Arg7 to alanine mutant (Escherichia coli bacteriophage HK97). The description is as above.
Series [4] has as its target HK97 small terminase Arg107 to alanine mutant (Escherichia coli bacteriophage HK97). The description is as above.
Series [5] has as its target HK97 small terminase Arg114 to alanine mutant (Escherichia coli bacteriophage HK97). Described as above.
In series [6] the target is HK97 small terminase Arg128 to alanine mutant (Escherichia coli bacteriophage HK97). The series is described as above.
Series [7] addresses HK97 small terminase Lys4 to alanine mutant (Escherichia coli bacteriophage HK97). The description is as above.
The target of series [8] is HK97 small terminase Lys100 to alanine mutant (Escherichia coli bacteriophage HK97). Described as above.
Series [9] deals with HK97 small terminase triple mutant (Lys4, Arg5 and Arg7 to alanine) (Escherichia coli bacteriophage HK97). Described as above.
Series [10] has as its target T1, small terminase WT (Escherichia coli bacteriophage HK97, UniProt Q9MBW4 1-161).
T1 sequence: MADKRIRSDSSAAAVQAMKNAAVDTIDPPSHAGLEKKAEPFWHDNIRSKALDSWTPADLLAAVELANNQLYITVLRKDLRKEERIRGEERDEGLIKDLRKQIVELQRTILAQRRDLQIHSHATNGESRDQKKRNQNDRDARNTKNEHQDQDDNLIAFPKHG
Put plainly: MST. The settings on record: rough upper limit of Kapp; mixed specific and nonspecific binding; 10 mM MgCl2; EMSA: 25 mM Tris-HCl pH 7.5, 200 mM NaCl, 10 mM MgCl2, RT 2-3 h, gel at 4 C (DNA 2 uM boundary mapping, 0.5 uM DNA mutants, 20 nM Alexa647 or 40 nM Cy5 DNA) …. For orientation: Mobility shift assays separate free from complexed probe on a gel.

Series [11] has as its target T1, small terminase WT. Description: EMSA; little influence on binding; EMSA: 25 mM Tris-HCl pH 7.5, 200 mM NaCl, 10 mM MgCl2, RT 2-3 h, gel at 4 C (DNA 2 uM boundary mapping, 0.5 uM DNA mutants, 20 nM Alexa647 or 40 nM Cy5 DNA); MST: same buffer + 0.005-0.01% Tween 20, 12 nM DNA, 20 C. The settings on record: protein: recombinant; tags: His-SUMO tag removed; chain copies: 9.

The target of series [12] is T1, small terminase WT. Put plainly: EMSA; EMSA: 25 mM Tris-HCl pH 7.5, 200 mM NaCl, 10 mM MgCl2, RT 2-3 h, gel at 4 C (DNA 2 uM boundary mapping, 0.5 uM DNA mutants, 20 nM Alexa647 or 40 nM Cy5 DNA); MST: same buffer + 0.005-0.01% Tween 20, 12 nM DNA, 20 C. The settings on record: protein: recombinant; tags: His-SUMO tag removed; chain copies: 9.
The target of series [13] is T1, small terminase WT. Put plainly: cryoEM; 3.0 A; 28 of 31 bp modelled; DNA threaded through channel; EMSA: 25 mM Tris-HCl pH 7.5, 200 mM NaCl, 10 mM MgCl2, RT 2-3 h, gel at 4 C (DNA 2 uM boundary mapping, 0.5 uM DNA mutants, 20 nM Alexa647 or 40 nM Cy5 DNA); MST: same buffer + 0.005-0.01% Tween 20, 12 nM DNA, 20 C. The settings on record: protein: recombinant; tags: His-SUMO tag removed; chain copies: 9.

Series [14] concerns the target T1, small terminase WT. Description: EMSA; up to 1 uM protein; EMSA: 25 mM Tris-HCl pH 7.5, 200 mM NaCl, 10 mM MgCl2, RT 2-3 h, gel at 4 C (DNA 2 uM boundary mapping, 0.5 uM DNA mutants, 20 nM Alexa647 or 40 nM Cy5 DNA); MST: same buffer + 0.005-0.01% Tween 20, 12 nM DNA, 20 C. Conditions: protein: recombinant; tags: His-SUMO tag removed; chain copies: 9.
The target of series [15] is T1, small terminase WT. Put plainly: EMSA; binding abolished; up to 1 uM protein; EMSA: 25 mM Tris-HCl pH 7.5, 200 mM NaCl, 10 mM MgCl2, RT 2-3 h, gel at 4 C (DNA 2 uM boundary mapping, 0.5 uM DNA mutants, 20 nM Alexa647 or 40 nM Cy5 DNA); MST: same buffer + 0.005-0.01% Tween 20, 12 nM DNA, 20 C. The settings on record: protein: recombinant; tags: His-SUMO tag removed; chain copies: 9.

Substitutions are numbered along the chain they refer to.

Regarding HK97 small terminase, in series [1], the stoichiometry N (commonly a count of units in the complex or per binding partner) came out at 9.

For the molecule “HK97 small terminase Arg5 to alanine mutant (natural protein)”, in [2], the stoichiometry N is 9. “HK97 small terminase Arg7 to alanine mutant (natural protein)”: the stoichiometry N in series [3] is 9.

As for “HK97 small terminase Arg107 to alanine mutant (natural protein)”, the stoichiometry N in [4] is 9. In turn, “HK97 small terminase Arg114 to alanine mutant (natural protein)” registered a stoichiometry N in series [5] of 9.

In series [6], “HK97 small terminase Arg128 to alanine mutant (natural protein)” gave a stoichiometry N of 9. For “HK97 small terminase Lys4 to alanine mutant (natural protein)”, in [7], the stoichiometry N worked out at 9. As for “HK97 small terminase Lys100 to alanine mutant (natural protein)”, the stoichiometry N in series [8] came out at 9.

In turn, “HK97 small terminase triple mutant (Lys4, Arg5 and Arg7 to alanine) (natural protein)” yielded a stoichiometry N in series [9] of 9. Regarding cos -20-80 (100 bp), the Kd (as a rule, the concentration at which binding is half-saturated) with small terminase WT [10] was under 100 nM.

B1: positions 24-29 A:T swapped (dsDNA)
DNA 1: ATTTAACGCTAACCCGAAAAAAATAGTTTTA
DNA 2: TAAAACTATTTTTTTCGGGTTAGCGTTAAAT
For the molecule B1, the binding result in the series with small terminase WT [11] was “binds”.

B2: 21 bp cos oligo (dsDNA)
DNA 1: ACGCTAACCCGATTTTTTTAG
DNA 2: CTAAAAAAATCGGGTTAGCGT
In the case of B2, in the series with small terminase WT [12], the binding result is recorded as “binds”.

B3: 25 bp cos oligo (dsDNA)
DNA 1: TAACGCTAACCCGATTTTTTTAGTT
DNA 2: AACTAAAAAAATCGGGTTAGCGTTA
For B3, in the series with small terminase WT [12], the binding result is recorded as “binds”.

B4: cos 7-37 (31 bp) (dsDNA)
DNA 1: ATTTAACGCTAACCCGATTTTTTTAGTTTTA
DNA 2: TAAAACTAAAAAAATCGGGTTAGCGTTAAAT
As to B4, the binding result with small terminase WT [13] is “binds”.

B5: position 21 C:G to T:A (dsDNA)
DNA 1: B4 DNA 1 with C15T
DNA 2: B4 DNA 2 with G17A
Consider B5, for which, in the series with small terminase WT [14], the binding result is recorded as “no binding”.

B6: positions 26-27 G:C (dsDNA)
DNA 1: B4 DNA 1 with T20C, T21C
DNA 2: B4 DNA 2 with A11G, A12G
For B6, the binding result with small terminase WT [15] is recorded as “no binding”.

The record behind these values is publication PMC11331095, “Structural basis for DNA recognition by a viral genome-packaging machine”.
